From paper PMC4167697
Where “and” joins values, the source holds several entries; their conditions need not be identical. Identical values can stand only once.

Legend:
protein G B1 [1] = experiment: BLI; kinetic titration series; GB1 amine-coupled on AR2G sensors, IgG as analyte at 0.03125-0.5 µM in turn on one sensor; PBS with 0.05% Polysorbat 20, 25°C, 1000 rpm; each sensor pair fitted separately, 1:1 kinetic titration series model with RI-term
protein G B1 [2] = experiment: BLI; kinetic titration series, fitted without RI term (Figure S3B); GB1 on AR2G sensors, IgG as analyte
protein G B1 [3] = experiment: BLI; kinetic titration series; GB1 amine-coupled on AR2G sensors, IgG as analyte at 0.03125-0.5 µM in turn on one sensor; PBS with 0.05% Polysorbat 20, 25°C, 1000 rpm; each sensor pair fitted separately, 1:1 kinetic titration series model with RI-term; remark: listed apart in the source
protein G B1 [4] = experiment: as above; remark: listed apart in the source
protein G B1 [5] = experiment: as above; remark: listed apart in the source
protein G B1 [6] = experiment: as above; remark: listed apart in the source
protein G B1 [7] = experiment: BLI; parallel sensor kinetics; GB1 amine-coupled on AR2G sensors, IgG as analyte at 0.03125-0.5 µM on five sensors in parallel; PBS with 0.05% Polysorbat 20, 25°C, 1000 rpm; global 1:1 fit with RI-term
protein G B1 [8] = experiment: BLI; kinetic titration series; GB1 amine-coupled on AR2G sensors, IgG as analyte at 0.03125-0.5 µM in turn on one sensor; PBS with 0.05% Polysorbat 20, 25°C, 1000 rpm; each sensor pair fitted separately, 1:1 kinetic titration series model with RI-term; remark: listed apart in the source
protein G B1 [9] = experiment: BLI; parallel sensor kinetics, fitted without RI term (Figure S3A); GB1 on AR2G sensors, IgG as analyte
protein G B1 [10] = experiment: BLI; kinetic titration series; GB1 amine-coupled on AR2G sensors, IgG as analyte at 0.03125-0.5 µM in turn on one sensor; PBS with 0.05% Polysorbat 20, 25°C, 1000 rpm; each sensor pair fitted separately, 1:1 kinetic titration series model with RI-term; remark: listed apart in the source
protein G B1 [11] = experiment: BLI; kinetic titration series; GB1 amine-coupled on AR2G sensors, IgG as analyte at 0.03125-0.5 µM in sequence on one sensor; PBS with 0.05% Polysorbat 20, 25°C, 1000 rpm; 1:1 kinetic titration series model with RI-term; mean of 7 replicates
protein G B1 [12] = experiment: BLI; parallel sensor kinetics; GB1 amine-coupled on AR2G sensors, IgG as analyte at 0.03125-0.5 µM, one sensor for each concentration; PBS with 0.05% Polysorbat 20, 25°C, 1000 rpm; global 1:1 binding model with RI-term; two measurements (#1, #2)

rabbit IgG (ID: ABIN376828; Antibodies-Online) (antibody)
Kd (protein G B1 [1]): 124 nM | koff (protein G B1 [1]): 0.00551 s⁻¹ | kon (protein G B1 [1]): 44300 M⁻¹ s⁻¹ | Kd (protein G B1 [2]): 107 nM | koff (protein G B1 [2]): 0.00185 s⁻¹ | kon (protein G B1 [2]): 17300 M⁻¹ s⁻¹ | Kd (protein G B1 [3]): 50.4 nM | koff (protein G B1 [3]): 0.0016 s⁻¹ | kon (protein G B1 [3]): 31800 M⁻¹ s⁻¹ | Kd (protein G B1 [4]): 164 nM | koff (protein G B1 [4]): 0.00485 s⁻¹ | kon (protein G B1 [4]): 29700 M⁻¹ s⁻¹ | Kd (protein G B1 [5]): 87.7 nM | koff (protein G B1 [5]): 0.00601 s⁻¹ | kon (protein G B1 [5]): 68500 M⁻¹ s⁻¹ | Kd (protein G B1 [6]): 166 nM | koff (protein G B1 [6]): 0.00476 s⁻¹ | kon (protein G B1 [6]): 28700 M⁻¹ s⁻¹ | koff (protein G B1 [7]): 0.00702 s⁻¹ | kon (protein G B1 [7]): 45100 M⁻¹ s⁻¹ | Kd (protein G B1 [8]): 254 nM | koff (protein G B1 [8]): 0.00467 s⁻¹ | kon (protein G B1 [8]): 18400 M⁻¹ s⁻¹ | Kd (protein G B1 [9]): 186 nM | koff (protein G B1 [9]): 0.00317 s⁻¹ | kon (protein G B1 [9]): 17000 M⁻¹ s⁻¹ | Kd (protein G B1 [10]): 266 nM | koff (protein G B1 [10]): 0.00606 s⁻¹ | kon (protein G B1 [10]): 22800 M⁻¹ s⁻¹

rabbit immunoglobulin G (antibody)
Kd (protein G B1 [11]): 159 nM | Kd (protein G B1 [12]): 156 nM and 253 nM
